Experimental data published in patent US20230086603A1 (BOLT BIOTHERAPEUTICS, published 2023).
Changes are numbered by the printed parent chain.

B1: 33 (antibody, V domains shown)
VH: QVQLVQSGAEVKKPGASVKVSCKASGYTFTRHFIHWVRQAPGQGLEWMGWIDPNSGVTSSAQKFQGRVTMTRDTSTSTVYMELSSLRSEDTAVYYCARELSRWGFDYWGPGTMVTVSS
VL: EIVMTQSPATLSVSPGERATLSCRASQTVSSNYLAWYQQKPGQAPRLLIYGASTRASGIPARFSGSGSGTEFTLTISSLQSEDFAVYYCQQYYTTPLTFGGGTKVEIK
B2: 6 (antibody, V domains shown)
VH: QVQLVQSGAEVKKPGASVKVSCKASGYTFTSYYIHWVRQAPGQGLEWMGWMKPSSGTTGYAQKFQGRVTMTRDTSTSTVYMELSSLRSEDTAVYYCAREQWLVNDAFDIWGQGTLVTVSS
VL: B1 VL with T28S, S30D, S31R, L34V, A35T, S57T, Y92S, L97Y, G101Q
B3: 30 (antibody, V domains shown)
VH: QVQLVQSGAEVKKPGASVKVSCKASGYPFSTYYMHWVRQAPGQGLEWMGWMNPHSADTGYAEKFQGRVTMTRDTSTSTVYMELSSLRSEDTAVYYCAREVFEGGMDVWGQGTTVTVSS
VL: DIQMTQSPSSLSASVGDRVTITCRASQSVGSWVAWYQQKPGKAPKLLIYPASTLQSGVPSRFSGSGSGTDFTLTISSLQPEDFATYYCQQSYSTPLTFGGGTKVEIK
B4: 68 (antibody, V domains shown)
VH: QVQLVQSGAEVKKPGASVKVSCKASGYTFTGYYMHWVRQAPGQGLEWMGWINPNSGTTGYAQNFQGRVTMTRDTSTSTVYMELSSLRSEDTAVYYCAREGFGPNAFDIWGQGTTVTVSS
VL: B3 VL with V29I, G30S, V33L, P50A, T53N, S91Y, L96Y, G100Q
B5: 4 (antibody, V domains shown)
VH: QVQLVQSGAEVKKPGASVKVSCKASGYTFTSHHMHWVRQAPGQGLEWMGWVSPSHGLTGYAQKFQGRVTMTRDTSTSTVYMELSSLRSEDTAVYYCARDNWNVHDAFDIWGQGTLVTVSS
VL: B3 VL with S28G, V29I, G30S, W32Y, V33L, P50G, T53N
B6: 67 (antibody, V domains shown)
VH: QVQLVQSGAEVKKPGASVKVSCKASGYTFSTHYMHWVRQAPGQGLEWMGWINPNSGHAGSAQKFQGRVTMTRDTSTSTVYMELSSLRSEDTAVYYCARESIAVAGYDYWGQGTLVTVSS
VL: B3 VL with V29I, G30S, V33L, P50A, S56R, L96Y, G100Q, V104L
B7: 32 (antibody, V domains shown)
VH: QVQLVQSGAEVKKPGASVKVSCKASGYTFTSYYMHWVRQAPGQGLEWMGWMNPNSGHTGYAQKFQGRVTMTRDTSTSTVYMELSSLRSEDTAVYYCAREDFYGDFDYWGQGTLVTVSS
VL: B3 VL with S28G, V29I, G30S, S31R, W32Y, V33L, P50A, G100Q
B8: 5 (antibody, V domains shown)
VH: QVQLVQSGAEVKKPGASVKVSCKASGYTFNRFMHWVRQAPGQGLEWMGWMSLNSGLTGYAQKFQGRVTMTRDTSTSTVYMELSSLRSEDTAVYYCTRGTYNDAFDIWGQGTLVTVSS
VL: DIQMTQSPSSLSASVGDRVTITCRASQTISNYLNWYQQKPGKAPKLLIYAASSLQSGVPSRFSGSGSGTDFTLTISSLQPEDFATYYCQQSYTTPITFGGGTKVEIK
B9: 35 (antibody, V domains shown)
VH: QVQLVQSGAEVKKPGASVKVSCKASGYPFSSYYMHWVRQAPGQGLEWMGMINPSGGSTSYAQKFQGRVTMTRDTSTSTVYMELSSLRSEDTAVYYCARDIFPTMIAGGGFDLWGRGTLVTVSS
VL: B3 VL with V29I, G30S, V33L, P50D, T53N, Q55E, S56T, L96P, G100Q
B10: 70 (antibody, V domains shown)
VH: QVQLVQSGAEVKKPGASVKVSCKASGYTFTDHYLHWVRQAPGQGLEWMGWINPNIGNTGYAQKFQGRVTMTRDTSTSTVYMELSSLRSEDTAVYYCAREPLQLGGFDYWGQGTLVTVSS
VL: B3 VL with Q27E, V29I, G30S, V33L, P50A, T53S, G100Q, V104L
B11: 66 (antibody, V domains shown)
VH: QVQLVQSGAEVKKPGASVKVSCKASGYTFSSYYMHWVRQAPGQGLEWMGWITTNSGITGYAQKFQGRVTMTRDTSTSTVYMELSSLRSEDTAVYYCAREGYSSGLDYWGQGTLVTVSS
VL: not shown
B12: 31 (antibody, V domains shown)
VH: QVQLVQSGAEVKKPGASVKVSCKASGYTFTSYYMHWVRQAPGQGLEWMGWLTPSTGHAGYAQKFQGRVTMTRDTSTSTVYMELSSLRSEDTAVYYCAREGYGGNYGNWGQGTLVTVSS
VL: DIQMTQSPSSLSASVGDRVTITCRASQSISPWLAWYQQKPGKAPKLLIYDASNLETGVPSRFSGSGSGTDFTLTISSLQPEDFATYYCQQTYSTPITFGQGTRLEIK
B13: 69 (antibody, V domains shown)
VH: QVQLVQSGAEVKKPGASVKVSCKASGYTFTSYYMHWVRQAPGQGLEWMGWINPNSGNTGYAQKFQGRVTMTRDTSTSTVYMELSSLRSEDTAVYYCARDDWGGDWFDYWGQGTLVTVSS
VL: B12 VL with R24Q, S28D, P31N, W32H, A34N, D50G, E55Q, T56R, T91S
B14: 34 (antibody, V domains shown)
VH: QVQLVQSGAEVKKPGASVKVSCKASGYTFTRHLLHWVRQAPGQGLEWMGWISPQHGVRNYAHKFQGRVTMTRDTSTSTVYMELSSLRSEDTAVYYCARESVEGYFDLWGRGTLVTVSS
VL: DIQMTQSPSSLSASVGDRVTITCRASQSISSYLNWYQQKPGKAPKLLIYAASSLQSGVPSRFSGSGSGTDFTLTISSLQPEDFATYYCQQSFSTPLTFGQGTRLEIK
B15: 37 (antibody, V domains shown)
VH: QVQLVQSGAEVKKPGASVKVSCKASGYTFTSYGINWVRQAPGQGLEWMGWMNPNSGNTGYAQKFQGRVTMTRDTSTSTVYMELSSLRSEDTAVYYCARGSFPLVFTIFGVGDVWGQGTMVTVSS
VL: DIQMTQSPSSLSASVGDRVTITCRSSQGIRNDLSWYQQKPGKAPKLLIYLASNSHSGVPSRFSGSGSGTDFTLTISSLQPEDFATYYCLQHNSYPLTFGGGTKVEIK
B16: PD-L1 binding agent 10 (antibody, V domains shown)
VH: QVQLVQSGAEVKKPGASVKVSCKASGYTFTGYYMHWVRQAPGQGLEWIGWMSLNSGLTGYAQKFQGRVTMTRDTSTSTVYMELSSLRSEDTAVYYCARDRGWFDPWGQGTLVTVSS
VL: B3 VL with V29I, G30S, V33L, P50A, Q55E, S93T, L96Y, T97S
B17: PD-L1 binding agent 21 (antibody, V domains shown)
VH: B7 VH with Y32H, Y60N, E99G, D100N, F101W, Y102V, G103D, D104A, Y107I, L113M
VL: B3 VL with S28G, V29I, G30R, S31N, W32D, V33L, P50A

Target: T1, human PD-L1 (hPD-L1) (human, UniProt Q9NZQ7 19-290)
T1 construct: Endogenous hPD-L1 on JIMT1 (JIMT-1) cells; also called programmed death-ligand 1; CD274
T1 sequence (Q9NZQ7 19-290 limits assumed): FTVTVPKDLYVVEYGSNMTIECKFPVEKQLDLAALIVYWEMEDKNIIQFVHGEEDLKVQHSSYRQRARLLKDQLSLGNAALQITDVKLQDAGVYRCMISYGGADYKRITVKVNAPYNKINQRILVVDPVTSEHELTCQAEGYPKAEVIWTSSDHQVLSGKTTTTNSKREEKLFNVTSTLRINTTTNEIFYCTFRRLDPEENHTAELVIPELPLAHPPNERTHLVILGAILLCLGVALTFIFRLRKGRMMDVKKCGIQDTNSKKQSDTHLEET
Assay: flow cytometry on JIMT-1 cells expressing endogenous human PD-L1; anti-human IgG Fc secondary; geometric MFI
Experimental: Binding of the binding agents of an embodiment of the invention to human PD-L1 (hPD-L1) on cell surfaces was assessed by incubating the binding agents with JIMT1 cells that express endogenous hPD-L1. Briefly, the binding agents were diluted serially in FACS buffer (PBS+1% FBS+5 mM EDTA, pH 7.4) at 4° C. Diluted binding agents were applied to JIMT1 cells (˜1×10⁵-2×10⁵ per well) and incubated at 4° C. […] After unbound secondary antibody was washed out, cells were resuspended in FACS buffer plus 2% formaldehyde and analyzed by flow cytometry. The intensity of fluorescence, expressed as geometric mean fluorescence intensity, was used to determine anti-PDL1 binding agent binding to hPD-L1 on cell surface.

| binding result | Binder |
| --- | --- |
| binds | B1 |
| binds | B2 |
| binds | B3 |
| binds | B4 |
| binds | B5 |
| binds | B6 |
| binds | B7 |
| binds | B8 |
| binds | B9 |
| binds | B10 |
| binds | B11 |
| binds | B12 |
| binds | B13 |
| binds | B14 |
| binds | B15 |

Target: PD-L1 on CHO-K1/PD-L1/alphaAPC stimulator cells (UniProt Q9NZQ7 19-290, limits assumed)
Sequence (Q9NZQ7 19-290 limits assumed): as above
Assay: cell-based or functional assay

| EC50 (nM), PD-L1/PD-1 blockade, luciferase reporter cells [nM] | EC50 (ng/ml), PD-L1/PD-1 blockade, luciferase reporter cells [ng/mL] | Binder |
| --- | --- | --- |
| 2.02 | 291 | B16 |
| 0.9 | 129 | B17 |
